From patent US20240400693A1 (Chugai, published 2024)

B1: DQN0344H0976/L0591//DQN0385H1270/L0681-F6 (bispecific antibody)
heavy 1: QVQLVESGGGVVQPGGSLRLSCAASGFTFSSAYWMVWVRQAPGQGLEWMGAVYGGSDTTYYAKWTEGRFTISRDTSKNTLYLQMNSLRAEDTAVYYCAREPLNYYYYGELNLWGQGTLVTVSSASTKGPSVFPLAPSSKSTSGGTAALGCLVKDYFPEPVTVSWNSGALTSGVHTFPAVLKSSGLYSLSSVVTVPSSSLGTQTYICNVNHKPSNTKVDKRVEPKSCDKTHTCPPCPAPELRRGPSVFLFPPKPKDTLMISRTPEVTCVVVDVSHEDPEVKFNWYVDGVEVHNAKTKPREEQYNSTYRVVSVLTVLHQDWLNGKEYKCKVSNKALPAPIEKTISKAKGQPREPQVYTLPPSREEMTKNQVSLTCLVKGFYPSDIAVEWESNGQPENNYKTTPPYLDSDGSFFLYSKLTVDKSRWQEGNVFSCSVLHEALHAHYTREELSLSP
light 1: DIQMTQSPSSLSASVGDRVTITCQATEEIYSGLAWYQQKPGKAPKLLIYYVSTLYEGIPARFSGSGSGTDFTLTISSLEPEDFAVYYCQTYEDVSAVTFGQGTKVEIKRTVAAPSVFIFPPSDEQLKSGTAEVVCLLNNFYPREAKVQWKVDNALQSGNSEESVTEQDSKDSTYSLSSTLTLSKADYEKHKVYACEVTHQGLSSPVTKSFNRGEC
heavy 2: QVQLVESGGGVVQPGRSLRLSCAASGFTFSEWYFMSWVRQAPGKGLEWVASIDTGSGSIDYAEWVEGRFTISRDNSKNTLYLQMNSLRAEDTAVYYCARDIGIDYNFWGPGTLVTVSSASTKGPSVFPLAPSSKSTSGGTAALGCLVEDYFPEPVTVSWNSGALTSGVHTFPAVLESSGLYSLSSVVTVPSSSLGTKTYICNVNHKPSNTKVDKRVEPKSCDKTHTCPPCPAPELRRGPSVFLFPPKPKDTLMISRTPEVTCVVVDVSHEDPEVKFNWYVDGVEVHNAKTKPREEQYNSTYRVVSVLTVLHQDWLNGKEYKCKVSNKALPAPIEKTISKAKGQPREPQVYTLPPSRKEMTKNQVSLTCLVKGFYPSDIAVEWESNGQPENNYKTTPPYLDSDGSFFLYSKLTVDKSRWQQGNVFSCSVLHEALHAHYTRKELSLSP
light 2: DIQMTQSPSSLSASVGDRVTITCQTTQSISSYLNWYQQKPGQPPKLLIYYASTKAEGIPARFSGSGLGTDFTLTISSLEPEDFAVYYCHYGISKVSFGQGTKVEIKRTVAAPSVFIFPPSDEQLKSGTAKVVCLLNNFYPREAKVQWKVDNALQSGNSKESVTEQDSKDSTYSLSSTLTLSKADYEKHKVYACEVTHQGLSSPVTKSFNRGEC
B2: DQN0344H0976/L0591//DQN0385H1255/L0605-F6 (bispecific antibody)
heavy 1: QVQLVESGGGVVQPGGSLRLSCAASGFTFSSAYWMVWVRQAPGQGLEWMGAVYGGSDTTYYAKWTEGRFTISRDTSKNTLYLQMNSLRAEDTAVYYCAREPLNYYYYGELNLWGQGTLVTVSSASTKGPSVFPLAPSSKSTSGGTAALGCLVKDYFPEPVTVSWNSGALTSGVHTFPAVLKSSGLYSLSSVVTVPSSSLGTQTYICNVNHKPSNTKVDKRVEPKSCDKTHTCPPCPAPELRRGPSVFLFPPKPKDTLMISRTPEVTCVVVDVSHEDPEVKFNWYVDGVEVHNAKTKPREEQYNSTYRVVSVLTVLHQDWLNGKEYKCKVSNKALPAPIEKTISKAKGQPREPQVYTLPPSREEMTKNQVSLTCLVKGFYPSDIAVEWESNGQPENNYKTTPPYLDSDGSFFLYSKLTVDKSRWQEGNVFSCSVLHEALHAHYTREELSLSP
light 1: DIQMTQSPSSLSASVGDRVTITCQATEEIYSGLAWYQQKPGKAPKLLIYYVSTLYEGIPARFSGSGSGTDFTLTISSLEPEDFAVYYCQTYEDVSAVTFGQGTKVEIKRTVAAPSVFIFPPSDEQLKSGTAEVVCLLNNFYPREAKVQWKVDNALQSGNSEESVTEQDSKDSTYSLSSTLTLSKADYEKHKVYACEVTHQGLSSPVTKSFNRGEC
heavy 2: QVQLVESGGGVVQPGRSLRLSCAASGFTFSEWYFMSWVRQAPGKGLEWVASIDTGSGSIDYAGWVEERFTISRDNSKNTLYLQMNSLRAEDTAVYYCARDIGIDYNFWGPGTLVTVSSASTKGPSVFPLAPSSKSTSGGTAALGCLVEDYFPEPVTVSWNSGALTSGVHTFPAVLESSGLYSLSSVVTVPSSSLGTKTYICNVNHKPSNTKVDKRVEPKSCDKTHTCPPCPAPELRRGPSVFLFPPKPKDTLMISRTPEVTCVVVDVSHEDPEVKFNWYVDGVEVHNAKTKPREEQYNSTYRVVSVLTVLHQDWLNGKEYKCKVSNKALPAPIEKTISKAKGQPREPQVYTLPPSRKEMTKNQVSLTCLVKGFYPSDIAVEWESNGQPENNYKTTPPYLDSDGSFFLYSKLTVDKSRWQQGNVFSCSVLHEALHAHYTRKELSLSP
light 2: DIQMTQSPSSLSASVGDRVTITCQTTQSISSYLNWYQQKPGQPPKLLIYYASTKAEGIPARFSGSGSGTDFTLTISSLEPEDFAVYYCHYGISKVSFGQGTKVEIKRTVAAPSVFIFPPSDEQLKSGTAKVVCLLNNFYPREAKVQWKVDNALQSGNSKESVTEQDSKDSTYSLSSTLTLSKADYEKHKVYACEVTHQGLSSPVTKSFNRGEC
B3: DQN0344H0976/L0591//DQN0385H1270/L0722-F6 (bispecific antibody)
heavy 1: QVQLVESGGGVVQPGGSLRLSCAASGFTFSSAYWMVWVRQAPGQGLEWMGAVYGGSDTTYYAKWTEGRFTISRDTSKNTLYLQMNSLRAEDTAVYYCAREPLNYYYYGELNLWGQGTLVTVSSASTKGPSVFPLAPSSKSTSGGTAALGCLVKDYFPEPVTVSWNSGALTSGVHTFPAVLKSSGLYSLSSVVTVPSSSLGTQTYICNVNHKPSNTKVDKRVEPKSCDKTHTCPPCPAPELRRGPSVFLFPPKPKDTLMISRTPEVTCVVVDVSHEDPEVKFNWYVDGVEVHNAKTKPREEQYNSTYRVVSVLTVLHQDWLNGKEYKCKVSNKALPAPIEKTISKAKGQPREPQVYTLPPSREEMTKNQVSLTCLVKGFYPSDIAVEWESNGQPENNYKTTPPYLDSDGSFFLYSKLTVDKSRWQEGNVFSCSVLHEALHAHYTREELSLSP
light 1: DIQMTQSPSSLSASVGDRVTITCQATEEIYSGLAWYQQKPGKAPKLLIYYVSTLYEGIPARFSGSGSGTDFTLTISSLEPEDFAVYYCQTYEDVSAVTFGQGTKVEIKRTVAAPSVFIFPPSDEQLKSGTAEVVCLLNNFYPREAKVQWKVDNALQSGNSEESVTEQDSKDSTYSLSSTLTLSKADYEKHKVYACEVTHQGLSSPVTKSFNRGEC
heavy 2: QVQLVESGGGVVQPGRSLRLSCAASGFTFSEWYFMSWVRQAPGKGLEWVASIDTGSGSIDYAEWVEGRFTISRDNSKNTLYLQMNSLRAEDTAVYYCARDIGIDYNFWGPGTLVTVSSASTKGPSVFPLAPSSKSTSGGTAALGCLVEDYFPEPVTVSWNSGALTSGVHTFPAVLESSGLYSLSSVVTVPSSSLGTKTYICNVNHKPSNTKVDKRVEPKSCDKTHTCPPCPAPELRRGPSVFLFPPKPKDTLMISRTPEVTCVVVDVSHEDPEVKFNWYVDGVEVHNAKTKPREEQYNSTYRVVSVLTVLHQDWLNGKEYKCKVSNKALPAPIEKTISKAKGQPREPQVYTLPPSRKEMTKNQVSLTCLVKGFYPSDIAVEWESNGQPENNYKTTPPYLDSDGSFFLYSKLTVDKSRWQQGNVFSCSVLHEALHAHYTRKELSLSP
light 2: DIQMTQSPSSLSASVGDRVTITCQTTQSISSYLNWYQQKPGQPPKLLIYYASTKAEGIPARFSGSGLGTDFTLTISSLQPEDFAVYYCHYGISKVSFGQGTKVEIKRTVAAPSVFIFPPSDEQLKSGTAKVVCLLNNFYPREAKVQWKVDNALQSGNSKESVTEQDSKDSTYSLSSTLTLSKADYEKHKVYACEVTHQGLSSPVTKSFNRGEC

Columns and labels:
Assay in all cases: cell-based or functional assay
[1] = target: HLA-DQ2.5 on IHW09023 cells loaded with gamma 1 gliadin peptide (human; wheat)
[2] = target: HLA-DQ2.5 on IHW09023 cells loaded with omega1/2 gliadin peptide (human; wheat)
[3] = target: HLA-DQ2.5 on IHW09023 cells loaded with gamma 2 gliadin peptide (human; wheat)
[4] = target: HLA-DQ2.5 on IHW09023 cells loaded with BC hordein peptide (human; barley)
[5] = target: HLA-DQ2.5 on IHW09023 cells loaded with gamma 4a gliadin peptide (human; wheat)
[6] = target: HLA-DQ2.5 on IHW09023 cells loaded with 33mer gliadin peptide (human; wheat)
[7] = target: HLA-DQ2.5 on IHW09023 cells loaded with gamma 3 gliadin peptide (human; wheat)
[8] = target: HLA-DQ2.5 on IHW09023 cells loaded with gamma 4d gliadin peptide (human; wheat)

Binder	IC50 (ng/mL), γ1 gliadin TCR, 250 nM γ1 gliadin [1]	IC50 (ng/mL), ω1 gliadin TCR, 25 µM ω1/2 gliadin [2]	IC50 (ng/mL), ω2 gliadin TCR, 250 nM ω1/2 gliadin [2]	IC50 (ng/mL), γ2 gliadin TCR, 250 nM γ2 gliadin [3]	IC50 (ng/mL), BC hordein TCR, 250 nM BC hordein [4]	IC50 (ng/mL), γ4a gliadin TCR, 25 µM γ4a gliadin [5]	IC50 (ng/mL), α1b gliadin TCR, 250 nM 33mer gliadin [6]	IC50 (ng/mL), α2 gliadin TCR, 250 nM 33mer gliadin [6]	IC50 (ng/mL), γ3 gliadin TCR, 100 µM γ3 gliadin [7]	IC50 (ng/mL), γ4d gliadin TCR, 100 µM γ4d gliadin [8]	IC50 (ng/mL), α1a gliadin TCR, 250 nM 33mer gliadin [6]
B1	1.05 ng/mL	2.07 ng/mL	0.26 ng/mL	182 ng/mL	12 ng/mL	749 ng/mL	1.36 ng/mL	0.34 ng/mL	2.4 ng/mL	11.8 ng/mL	
B2	0.91 ng/mL	2.62 ng/mL	0.25 ng/mL	440 ng/mL	13.6 ng/mL	1430 ng/mL	2.66 ng/mL	0.56 ng/mL	2.31 ng/mL	12.4 ng/mL	0.49 ng/mL
B3	0.66 ng/mL	2.55 ng/mL	0.26 ng/mL	281 ng/mL	13.2 ng/mL	726 ng/mL	1.41 ng/mL	0.31 ng/mL	2.88 ng/mL	16.3 ng/mL	0.38 ng/mL
